Data reported in the DeepSol protein solubility set.

Assay: soluble on expression in E. coli; label from the status in PepcDB or PDB records

| Sequence | soluble on expression in E. coli |
| --- | --- |
| MKTSSYLLKAGVDYPTNWDEFVDWFHDEQSCTSYLYALRWPNGFICPSCSSHQSPYQLSNGKLKCHACRFQCSVTSSTLFDKTRTPMKSWFAAVWFITNQKNGVSALGVQRLLGLGSYQTAWSLMHKLRYAMVDPERDKLSGIVEVDETLIGGVIPKSSIKNQQGKRKAIVLVAVELLSPSGFGRIRLRQVESATKEHIHQFIQDVIEPGSTICSDGSQAYKQIDKKGYKHNRMVHLGSSVPAHETMAGVHRVSSLCKRWLLGTYQGAVKAKQLDYYLDEFTFRFNRRKSDSRGLLFYRLLEQAVRSKPITYQSIKNRLEHHHHHH | not soluble |
| MKTTLLSAVLASTLLVCAPATVLAQPATSSAPAAQGAATKTVIDSSTRILSTLDQRRAEFRGNPAALRQYINGELNKAFDRDYSARLVLGVHGRGASDADVKLFADALAENLMQRYGTALLNFEGKPTFRAKSESALPGNRGVKVSTDLLRAGNDPTPVDYLMRNSGGQWKIFDVMIEGISYVQTFKTQFDGPLREKGIAKVAADLRSGNLQVGATPANGQLEHHHHHH | soluble |
| MKTVALIQARLGSSRLPCKMMLSLHGLPVIDWVVRRVRRATLVDEVVVATSTQPENDILEHHLSRQGVAVFRGPEDDVLERFRLAGAAYGAEQVVRVCADNPLIWGGAIDDLIRFWRAEGCDYAYNHIPRGNLYPDGLGAETLSFALLEEVAREATLPEHREHCLSFIWAHPERYTIRTFDPADPALHRPDLKLDMDTPADYRYLALMDIHPDITPEELVAMLPRTALEHHHHHH | soluble |
| MKVAIIGATGYGGIELIRLLEQHPYFSIASLHSFSQVGECITNVYPHFQNVLVHTLQEIDVEEIEKEAEIVFLATPAGVSAELTPKLLAVGLKVIDLSGDFRMKDPFIYEQWYKRAAAKEGVLREAVYGLSEWKRSEIQKANLIANPGCFATAALLAILPLVRSGIIEEDSIIIDAKSGVSGAGKTPTTMTHFPELYDNLRIYKVNEHQHIPEIEQMLAEWNRETKPITFSTHLIPISRGIMVTLYAKVKREMEIEQLQQLYEEAYEQSAFIRIRMQGEFPSPKEVRGSNYCDMGIAYDERTGRVTIVSVIDNMMKGAAGQAIQNANIVAGLEETTGLQHMPLYL | not soluble |
| MKVFGISGSPRLQGTHFAVNYALNYLKEKGAEVRYFSVSRKKINFCLHCDYCIKKKEGCIHKDDMEEVYENLIWADGVIIGTPVYQGNVTGQLKTLMDRCRAILAKNPKVLRGRVGMAIAVGGDRNGGQEIALRTIHDFFIINEMIPVGGGSFGANLGATFWSKDRGKKGVEEDEEGLRVLRKTLNRFYEVLKEKRGLLEHHHHHH | not soluble |
| MKVFTFLLIIMVCLYNFGVRAAMDNSKHSDEAEKLLAELSARKGEGEGEGEGEGEGEGEGEPKSTVSVFYLQPEEVNTLSHQAKRGDGEAGFRLFLYYKLSNYDEEKSSQWLKIAANNGHATAQYRLYVELQEQGETKEANEWLQKIKLAASNNDSSAIWFLVNCYKNQGNKKEALQWAYKLKASKQPLDADRLIEELTKEQK | soluble |
| MKVLEERNAFLSDYEVLKFLTDLEKKHLWDQKSLAALKKSRSKGKQNRPYNHPELQGITRNVVNYLSINKNFINQEDEGEERESSGAKDAEKSGISKMSDESFAELMTKLNSFKLFKAEKLQIVNQLPANMVHLYSIVEECDARFDEKTIEEMLEIISAYA | soluble |
| MKVLNELRQFYPLDELLRAAEIPRSTFYYHLKALSKPDKYADVKKRIGEIYHENRGRYGYRRVTLSLHREGKQINHKAVQRLMGTLSLKAAIKVKRYRSYRGEVGQTAPNVLQRDFKATRPNEKWVTDVTEFAVNGRKLYLSPVIDLFNNEVISYSLSERPVMNMVENMLDQAFKKLNPHEHPVLHSDQGWQYRMRRYQNILKEHGIKQSMSRKGNCLDNAVVECFFGTLKSECFYLDEFSNISELKDAVTEYIEYYNSRRISLKLKGLTPIEYRNQTYMPRV | not soluble |
| MKVNTWFGVLELDSNGKTLSSEVFPKDIRELALRSLSLRESRQNLPPEGFDLKTAALECGFTESLSEYYSLLHKVTLETVKLQVSQALTPDQRIIQAVEALDDINETTNSLSERLFEWYGGYFPESGLSGEELAVFISRYGSRENLPPEDPHYLKAKNSMGAKLEAADEVLLKGLAESVCSLYERRKQIEAYIESSMEILAPNLALLAGPMLGARLISIAGSLEKLAAFPSSTIQVIGASKALFKHLRSRAPSPKHGIIYSHPLINTSPWWVRGKVARALAAKLSLAARIDFYSAKRNPSLENELEEKIRKIRAENPRPPQKRQEIRAKPKKKRRKLEHHHHHH | soluble |
| MKVSKFGGSSVSNATQIKKVLNIVNSDPERKIVIVSAPGKRHDNDIKTTDLLIRLYEKVINHLDYHDKKREIIQRYDDIVKELQMDESILRTIDVTLEHYINQLKNEPKRLLDALLSCGEDFNAQLIALYNNSQGIPTKYISPKEAGIFVTDVPQEAQILDSAYSEIKKLRDYDEKLIIPGFFGVSHEGYIVTFPRGGSDITGAIISSGVRATIYENFTDVSGIYKANPNIIKDPELIEEITYREMRELSYAGFSVFHDEALQPLYKDRIPVVIKNTNRPQDKGTFIVHDREINAKNVISGISCDKDFTVINIKKYLMNRQVGFTRKILGVLEDNNISFDHMPSGIDTISIVMRSKQIQNKETKVLNEIRQKCDVDELSIEHDLAILMIVGEGMNKVIGTANKITHALAESKINLKMINQGASEISMMFGIHVDDAEKAVLSTYEFCYHGVALKNLCDKNMAGDPLEHHHHHH | not soluble |
| MKVSQVFISAISVFGLATSVNAQNASNTTSNAAPALHAQNGQLLNAGVVGAAVGGALAFLI | soluble |
| MKVVILGSGSYSGTPKPLCNCENCSIARRNPAFRRTRFSLYIEEGKILVDPSPDLHYHLERLNKKVENVFITHAHFDHIFGVPDLQVYKKLIISSNTLGIKVAKELSRLAFGSEVPSGYEWRYEELQFWNEYSFDNFRVIHFPVIHSLEIAGGYLFEIKGRRIGVTGDTGPEILKDEKVKKLLEGVDILIVEMTKRESIPGVHLGVSDSIEFAKVVGASYTVFAHISHTNYSHEVLEKRVRESGVQGEVARDFTIIEVLEHHHHHH | not soluble |
| MKVVPAQRCVYSFSANMAPVEEVYPGEQVVFETLDALGGSYDKIDFSKVNPATGPVFVNGVKPGDTLKVRIKRIELPRRGMIVTGKGFGVLGDEVEGFHTKELEIEKWAVLFDGVRIPIHPMVGVIGVAPQEGEYPTGTAHRHGGNMDTKEITENVTVHLPVFQEGALLALGDVHATMGDGEVCVSACEVPAKVVVEIDVSKEEIKWPVVETNDAYYIIVSLPDIEEALKEVTRETVWFIQRRKTIPFTDAYMLASLSVDVGISQLVNPAKTAKARIPKYIFTGVLEHHHHHH | not soluble |
| MKWTGEDVALYERERDYIDTALLPLLPVAFGQGAKRLASGGELVGLIAAEVERQLKGRLFLMPSFVYFADEPRALLTERLADWTNRLRREGMKHLFYVTCDRAWQEGEEADRVWFVPVVPLESMGESYKHELVREQAAELLRFLIGRWAQE | not soluble |
| MKYDTSELCDIYQEDVNVVEPLFSNFGGRSSFGGQIITVKCFEDNGLLYDLLEQNGRGRVLLVDGGGSVRRALVDAELARLATQNEWEGLVIYGAVRQVDDLEELDIGIQAIAAIPVGAAGEGIGESDVRVNFGGVTFFSGDHLYADNTGIILSEDPLDIE | not soluble |
| MKYLHTEKDYLDLLLAVKRKFDYQRSIVPYIVYFLLKTGMRFGELVALTWNEVDFDRGLLKTYRRYNTLSHKFVPPKNKTSIRMVPIDEECIKILRLLQTEQERANMELGIKNRYRMIFQHFGYIHSVPDIASVNKALSVLLNELDIYPIITTKGARHTYGSYLWHKGFDLGVIAKILGHRDISMLVEVYGHTLEEKIFEEFNQIRDIWKDCSLEHHHHHH | not soluble |
| MKYLLVDLSGKVDNYDKALYQALEKELSNEKSSIQLLIPGHGLIRLIPNKFSQTEFIVKRLIKALEGGINYIYLLLHVAFKKIDTIHFQWLPFVEVVGIEKYILYLLHVLSPQTKVILTIHNIYPHGVKSMSDSGKQKYKKRFRDTCRNIDNIIVHTESSKMEVIKEFDFVPDIISIVHHGVFIPKIRISKKEFLQKNKYVILQFGLQTYYKGTDILVDAVNLLPAEYSEKIETRIVGGVGESYLQELKGKDSNSLIHWKSYFLSNDELYEEINNSDVLVLPYREISQSGVLLLSIYFEKNIICSDLPSFVETIHGDQDNSLDHDFFFKNNDPSSLCELLMRYIDSNINNEKIQYRIKHLKNLYSWENAAKATISIYRK | not soluble |
| MKYQLNLTALRCPIPLLSAKKALKNLDKNDELMLILNLESAVENFSIFAEENSVALVEQYYASEKEFIVILKK | not soluble |
| MKYRSVFDIIGPVMIGPSSSHTAGAARMGQVARQLFRHEPERVSISLYGSFAKTYRGHGTDVALIGGILGFETDDLRIPEALEIAKEREIEVEFIEEDANAPHPNTARIRLYKGEEEIEVVACSIGGGKIEVVELNGFDLQLSGTSPALLIVNNDRFGAIAAVASILAKHEINISTMSVSRKEKGRRALMVIETDEILADEVIEEIKAQQNICQVTIME | not soluble |
| MKYTQSFCFVSVIVLSSSVHLHGQNNKMNVLLIIADDMRPELGCYGIEDIVTPRLDSLARYATVFQNAYCNIPVSGASRASLFTGMYPRYPNRFTAFDASAEKDCPEALSLPECFKKNGYYVVSNGKVFHNITDHADSWSEAPWRVHPDGYGKDWAEYNKWELWQNEESSRYVHPKTLRGPFCESADVADTTYIDGRVAQKTIADLRRLHKKEKPFFLACGFWKPHLPFNAPKKYWDLYRREEIHLAQNPYRPKALPKQVTSSGEIRGYGKFVTTKDETFQREAKHGYYACVSYIDAQIGLILDELDRLGLSENTIVVILGDHGWHLGEHGFWGKHNLMNHATRAPLIVRVPHCRGGKAKGIVEFVDIYPTLCELCGVPMPKDQLQGKSFVPILQDSGKKTKQYAFIQWKGGYNIVSEQYSSTIWLQGDSVVARMIFDRQLDASENENKVHCPYLSRERDKLEAQIKIRKSQLLEHHHHHH | not soluble |
| MKYVIGIDGGGSKTHMKISTLDYKVLLEVFKGPSNINSSTKEEVKRVLQELIMEGLGKLGQSLEECSAICIGTAGADRTEDKSIIEDMIRSLGYMGKIIVVNDAEIALAGGIEKREGIIVISGTGSICYGRNKEGRSARSGGWGHIIGDEGSGYDIGIKAIKAALKSFDKRGEKTILEGDILDFLKLKSHEDLINYIYRSGVTKKEIASLTRVVNSAYIKGDLVSKRILKEAARELFLSVKAVVEVLSMQNKKVVLTTAGGVINNINYLYDEFRKFLNLNYPKVKIISMKNDSAFGAVIIARSECDMAGDPLEHHHHHH | not soluble |
| MLAKRIIPCLDVRDGQVVKGVQFRNHEIIGDIVPLAKRYAEEGADELVFYDITASSDGRVVDKSWVSRVAEVIDIPFCVAGGIKSLEDAAKILSFGADKISINSPALADPTLITRLADRFGVQCIVVGIDTWYDAETGKYHVNQYTGDESRTRVTQWETLDWVQEVQKRGAGEIVLNMMNQDGVRNGYDLEQLKKVREVCHVPLIASGGAGTMEHFLEAFRDADVDGALAASVFHKQIINIGELKAYLATQGVEIRIC | not soluble |
